# Laboratory results taken from PMC6321010, “Interaction of the GTPase Elongation Factor Like-1 with the Shwachman-Diamond Syndrome Protein and Its Missense Mutations” (International Journal of Molecular Sciences, 2018).
# T1: human SBDS R175W with C-terminal FlAsH tag, labelled with Lumio Green (human, UniProt Q9Y3A5 1-250, R175W, Lumio Green dye (4',5'-bis(1,3,2-dithioarsolan-2-yl) fluorescein) on the C-terminal FlAsH tag)
# T1 construct: Missense variant found in patients; source: E. coli C41 (pRSET plasmid), purified by conventional chromatographic techniques; not shown: FlAsH tag (Cys-Cys-Pro-Gly-Cys-Cys), C-terminal, kept
# T1 sequence (looked up): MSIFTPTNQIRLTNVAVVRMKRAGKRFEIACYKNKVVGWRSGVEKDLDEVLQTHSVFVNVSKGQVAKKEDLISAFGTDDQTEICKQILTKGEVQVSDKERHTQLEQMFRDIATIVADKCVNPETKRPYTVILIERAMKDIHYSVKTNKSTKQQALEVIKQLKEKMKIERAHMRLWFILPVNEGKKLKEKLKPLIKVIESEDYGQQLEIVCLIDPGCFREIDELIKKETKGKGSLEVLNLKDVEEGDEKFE
# T2: human SBDS R19Q with C-terminal FlAsH tag, labelled with Lumio Green (human, UniProt Q9Y3A5 1-250, R19Q, Lumio Green dye (4',5'-bis(1,3,2-dithioarsolan-2-yl) fluorescein) on the C-terminal FlAsH tag)
# T2 construct: human SBDS, SDS disease surface missense variant R19Q (domain 1), in the three-domain protein; Missense variant found in patients; source: E. coli C41 (pRSET plasmid), purified by conventional chromatographic techniques; not shown: FlAsH tag (Cys-Cys-Pro-Gly-Cys-Cys), C-terminal, kept
# T2 sequence (looked up): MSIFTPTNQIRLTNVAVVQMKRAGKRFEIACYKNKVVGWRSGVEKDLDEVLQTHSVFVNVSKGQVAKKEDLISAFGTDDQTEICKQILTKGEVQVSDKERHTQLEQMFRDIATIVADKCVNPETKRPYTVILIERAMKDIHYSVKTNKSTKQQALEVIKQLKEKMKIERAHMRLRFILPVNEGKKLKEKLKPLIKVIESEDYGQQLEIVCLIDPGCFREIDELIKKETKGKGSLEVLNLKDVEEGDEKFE
# T3: human SBDS wild type with C-terminal FlAsH tag, labelled with Lumio Green (human, UniProt Q9Y3A5 1-250, Lumio Green dye (4',5'-bis(1,3,2-dithioarsolan-2-yl) fluorescein) on the C-terminal FlAsH tag)
# T3 construct: human SBDS, wild type, called the full-length protein; also called SBDS-FlAsH; Shwachman-Bodian-Diamond Syndrome protein; source: E. coli C41 (pRSET plasmid), purified by conventional chromatographic techniques; not shown: FlAsH tag (Cys-Cys-Pro-Gly-Cys-Cys), C-terminal, kept
# T3 sequence (looked up): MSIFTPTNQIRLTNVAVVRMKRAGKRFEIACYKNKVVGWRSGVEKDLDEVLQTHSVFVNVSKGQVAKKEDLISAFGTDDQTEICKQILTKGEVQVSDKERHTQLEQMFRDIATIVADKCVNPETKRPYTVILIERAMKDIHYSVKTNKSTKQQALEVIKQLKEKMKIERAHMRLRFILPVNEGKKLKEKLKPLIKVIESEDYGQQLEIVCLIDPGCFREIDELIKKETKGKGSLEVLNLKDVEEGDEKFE
# Assays:
# Experiment in all cases: fluorescence polarisation; fluorescence anisotropy; 2 µL additions of 40-90 µM human EFL1 titrated into 300 µL of 0.1 µM Lumio Green-labelled human SBDS-FlAsH construct; 25 °C; 50 mM Tris-HCl pH 8, 300 mM NaCl, 5 mM β-mercaptoethanol; fitted to a single-site or a two different binding sites model
# Conditions in all cases: both partners purified
# [1] = molecular target: T1, human SBDS R175W with C-terminal FlAsH …
# [2] = molecular target: T2, human SBDS R19Q with C-terminal FlAsH …
# [3] = molecular target: T3, human SBDS wild type with C-terminal …
binder,measurement,setting,value
"human Elongation Factor Like-1 (EFL1) (enzyme, human EFL1, GTPase, said to comprise 1120 residues; the expressed protein is fused to a TEV recognition site and a hexahistidine tag at the C-terminus; also called human EFL1; GTPase Elongation Factor Like-1; source: S. cerevisiae BCY123 (pRS426 backbone, GAL1/10 promoter), purified) MVLNSLDKMIQLQKNTANIRNICVLAHVDHGKTTLADCLISSNGIISSRLAGKLRYMDSREDEQIRGITMKSSAISLHYATGNEEYLINLIDSPGHVDFSSEVSTAVRICDGCIIVVDAVEGVCPQTQAVLRQAWLENIRPVLVINKIDRLIVELKFTPQEAYSHLKNILEQINALTGTLFTSKVLEERAERETESQVNPNSEQGEQVYDWSTGLEDTDDSHLYFSPEQGNVVFTSAIDGWGFGIEHFARIYSQKIGIKKEVLMKTLWGDYYINMKAKKIMKGDQAKGKKPLFVQLILENIWSLYDAVLKKDKDKIDKIVTSLGLKIGAREARHSDPKVQINAICSQWLPISHAVLAMVCQKLPSPLDITAERVERLMCTGSQTFDSFPPETQALKAAFMKCGSEDTAPVIIFVSKMFAVDAKALPQNKPRPLTQEEIAQRRERARQRHAEKLAAAQGQAPLEPTQDGSAIETCPKGEEPRGDEQQVESMTPKPVLQEENNQESFIAFARVFSGVARRGKKIFVLGPKYSPLEFLRRVPLGFSAPPDGLPQVPHMAYCALENLYLLMGRELEYLEEVPPGNVLGIGGLQDFVLKSATLCSLPSCPPFIPLNFEATPIVRVAVEPKHPSEMPQLVKGMKLLNQADPCVQILIQETGEHVLVTAGEVHLQRCLDDLKERFAKIHISVSEPIIPFRETITKPPKVDMVNEEIGKQQKVAVIHQMKEDQSKIPEGIQVDSDGLITITTPNKLATLSVRAMPLPEEVTQILEENSDLIRSMEQLTSSLNEGENTHMIHQKTQEKIWEFKGKLEQHLTGRRWRNIVDQIWSFGPRKCGPNILVNKSEDFQNSVWTGPADKASKEASRYRDLGNSIVSGFQLATLSGPMCEEPLMGVCFVLEKWDLSKFEEQGASDLAKEGQEENETCSGGNENQELQDGCSEAFEKRTSQKGESPLTDCYGPFSGQLIATMKEACRYALQVKPQRLMAAMYTCDIMATGDVLGRVYAVLSKREGRVLQEEMKEGTDMFIIKAVLPVAESFGFADEIRKRTSGLASPQLVFSHWEIIPSDPFWVPTTEEEYLHFGEKADSENQARKYMNAVRKRKGLYVEEKIVEHAEKQRTLSKNK","Kd1 (first binding site, two different binding sites model)",[1],12 ± 4 µM
same,"Kd2 (second binding site, two different binding sites model)",[1],3.3 ± 0.6 µM
same,"Kd1 (first binding site, two different binding sites model)",[2],4.2 ± 0.5 µM
same,"Kd2 (second binding site, two different binding sites model)",[2],5.2 ± 0.3 µM
same,"Kd1 (first binding site, two different binding sites model)",[3],5.4 ± 1 µM
same,"Kd2 (second binding site, two different binding sites model)",[3],0.4 ± 0.04 µM
